Reference: the supplement of paper PMC10567573

B1: RAD51 (parent)
chain: APKKELINIKGISEAKADKILAEA

Variants of: B1
Assay: protein stability index of a GFP-peptide fusion (GPS, HEK-293T) (PSI 1-6); higher = more stable
Conditions: c terminus: a fixed tail appended
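Note: lentivirally expressed fusions sorted by FACS into six bins by GFP to DsRed ratio, PSI derived from sequencing read proportions per bin multiplied by bin number.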

Protein stability index: each site, then its substitutions
E5: M 3.7; N 4.22; P 4.54; Q 3.96; R 4.16; S 4.34; T 3.85; V 3.65; W 3.01; Y 3.1
L6: A 5.16; C 4.97; D 5.45; E 5.28; F 4.4; G 4.73; H 5.13; I 4.4; K 5; M 4.92; N 4.94; P 5.31; Q 4.79; R 4.61; S 4.79; T 5.06; V 5.2; W 4.12; Y 4.46
I7: A 5.13; C 4.21; D 5.31; E 5.17; F 3.8; G 4.8; H 5.01; K 4.78; L 5.31; M 4.99; N 4.7; P 5.04; Q 4.83; R 4.59; S 5.52; T 5.04; V 5.39; W 4.49; Y 4.73
N8: A 4.7; D 4.88; E 5.07; F 3.76; H 4.69; I 3.43; K 4.13; L 3.5; M 4.17; P 4.88; Q 4.67; R 4.79; S 4.32; T 4.01; V 4.07; W 3.75; Y 4.39
I9: C 5.4; D 5.19; E 5.68; F 4.51; G 5.11; H 4.66; K 5.22; L 4.62; M 5.06; N 5.26; P 5.4; Q 4.8; R 5.12; S 4.89; T 5.24; V 5.1; W 4.65; Y 4.91
K10: A 4.56; C 4.19; D 5.12; E 5.1; F 3.82; G 5.08; H 4.59; I 3.64; L 4.29; M 4.02; N 4.42; P 4.34; Q 4.46; R 4.2; S 5.35; T 4.68; V 4.38; W 3.99; Y 3.8
G11: A 5.12; C 4.17; D 4.9; E 4.74; F 3.69; H 4.8; I 3.39; K 4.68; L 3.69; M 3.98; N 4.62; P 4.93; Q 4.72; R 4.37; S 5.46; T 4.59; V 4.37; W 3.4; Y 4.18
I12: A 5.28; C 4.96; D 5.91; E 4.54; F 4.33; G 4.69; H 5.44; K 5.36; L 4.64; M 4.98; N 5.06; P 5.15; Q 5.33; R 5.14; S 5.27; T 5.16; V 4.7; W 4.36; Y 4.13
S13: A 4.97; C 4.43; D 5.12; E 5.23; F 3.73; H 5.38; I 3.86; K 4.7; L 4.21; M 4.56; N 4.65; P 4.88; Q 4.83; R 4.36; T 5.02; V 4.02; W 4.12; Y 3.71
E14: A 4.4; C 3.66; D 4.99; F 3.48; G 4.8; H 4.58; I 3.68; K 4.4; L 3.83; M 4.23; N 4.84; P 4.96; Q 4.76; R 4.05; S 4.23; T 4.43; V 4.81; W 3.89; Y 3.65
A15: C 4.63; D 4.64; E 5.25; F 4.45; G 4.81; H 4.18; I 4.77; K 4.95; L 4.27; M 4.41; N 4.36; P 4.41; Q 4.58; R 4.4; S 4.78; T 5.07; V 4.95; W 3.88; Y 3.58
K16: A 4.47; C 4.63; D 5; E 5.08; F 3.67; G 5.01; H 4.78; I 3.8; L 3.28; M 3.59; N 5.08; P 4.84; Q 4.65; R 4.53; S 4.61; T 5.22; V 3.98; W 1.64; Y 3.93
A17: C 5.04; D 5.51; E 5.22; F 3.73; G 4.84; H 4.49; I 4.15; K 4.83; L 4.53; M 4.43; N 4.94; P 4.82; Q 5.11; R 4.62; S 5; T 4.42; V 4.53; W 3.98; Y 4.08
D18: A 4.26; C 3.36; E 3.83; F 2.59; G 4.16; H 4.29; I 3.62; K 4.78; L 3.9; M 3.31; N 4.04; P 5.17; Q 4.27; R 4.07; S 3.53; T 4.04; V 4.07; W 2.76; Y 2.63
K19: A 3.63; C 4.44; D 4.98; E 5.12; F 3.7; G 4.93; H 4.3; I 3.38; L 3.89; M 4.43; N 4.84; P 4.48; Q 4.78; R 4.26; S 4.89; T 4.83; V 4.49; W 3.48; Y 4.61
I20: A 5.03; C 5.14; D 5.47; E 5.33; F 4.02; G 5.1; H 5.11; K 5.46; L 4.86; M 5.16; N 5.38; P 5.5; Q 5.69; R 4.75; S 4.95; T 5.16; V 4.97; W 4.26; Y 4.61
L21: A 4.91; C 5.15; D 5.58; E 4.54; F 4.13; G 4.73; H 4.95; I 5.32; K 5.2; M 4.98; N 5.02; P 5.21; Q 5.18; R 4.96; S 5.46; T 5.25; V 4.79; W 4.27; Y 4.58
A22: C 4.25; D 5.38; E 5.28; F 3.98; G 4.62; H 4.52; I 4.25; K 5.24; L 4.19; M 4.75; N 4.59; P 4.83; Q 5.15; R 4.84; S 4.61; T 3.9; V 4.79; W 3.58; Y 3.8
E23: A 4.18; C 3.38; D 4.96; F 3.46; G 4.1
